Laboratory results published in patent publication US20050058645A1.

Columns and labels:
[1] = target: T1, FLAG-tagged IL-4Rα-gp130 chimeric receptor; assay: cell-based or functional assay
T1 sequence: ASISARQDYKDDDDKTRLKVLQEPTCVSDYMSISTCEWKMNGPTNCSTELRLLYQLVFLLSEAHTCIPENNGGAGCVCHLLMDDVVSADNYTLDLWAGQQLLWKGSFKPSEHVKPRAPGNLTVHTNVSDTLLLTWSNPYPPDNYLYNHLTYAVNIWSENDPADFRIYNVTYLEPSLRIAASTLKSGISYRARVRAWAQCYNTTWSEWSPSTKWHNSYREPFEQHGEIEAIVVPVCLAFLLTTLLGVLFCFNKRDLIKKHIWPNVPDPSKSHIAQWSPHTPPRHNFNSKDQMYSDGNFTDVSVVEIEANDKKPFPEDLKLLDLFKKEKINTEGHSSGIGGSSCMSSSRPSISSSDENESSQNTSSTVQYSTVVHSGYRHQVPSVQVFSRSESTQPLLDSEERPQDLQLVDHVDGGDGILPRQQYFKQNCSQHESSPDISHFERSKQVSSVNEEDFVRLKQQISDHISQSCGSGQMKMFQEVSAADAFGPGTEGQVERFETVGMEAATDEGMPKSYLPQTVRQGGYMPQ

[2] = target: FLAG-tagged IL-13Rα1-gp130 chimeric receptor (human); assay: cell-based or functional assay

IL-4 (species not stated) (ligand), sequence (P05112 25-153): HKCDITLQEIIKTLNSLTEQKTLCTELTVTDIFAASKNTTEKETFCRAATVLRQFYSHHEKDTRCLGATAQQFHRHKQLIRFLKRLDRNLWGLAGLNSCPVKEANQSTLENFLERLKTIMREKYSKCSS

50% of maximal activity, STAT-3 luciferase reporter, lines 3.1.2 and 3.2.4 [1] | 50% of maximal activity, STAT-3 luciferase reporter, lines 3.1.2 and 3.2.4 [2] | Substance
2 to 4 ng/mL |  | IL-4 (species not stated) (ligand)
 | 100 to 200 pg/mL | IL-13 (species not stated) (ligand)
